Substrate: CC(C)(COP(=O)(O)OP(=O)(O)OC[C@H]1O[C@@H](n2cnc3c(N)ncnc32)[C@H](O)[C@@H]1OP(=O)(O)O)[C@@H](O)C(=O)NCCC(=O)NCCSC(=O)CC(=O)O
Assay: Carboxyltransferase inhibition, assayed in the reverse direction with coupled spectrophotometric detection
Format: biochemical, E. coli
Conditions: other: substrate of carboxyltransferase
Method: Carboxyltransferase was purified from a strain of E. coli that overexpresses the genes encoding the α and β subunits of the enzyme.
Carboxyltransferase was assayed in the reverse direction: the production of acetyl-CoA was detected by using the coupling enzymes malate dehydrogenase and citrate synthase, and the reduction of NAD^+ was measured spectrophotometrically by the method of C.
In Equations [1] and [2], v is the initial velocity, Vm is the maximal velocity, A is the substrate concentration, I is the concentration of inhibitor, Km is the Michaelis constant, Kis is the slope inhibition constant, and Kii is the intercept inhibition constant.
v=VmA/(Km(1+I/Kis)+A(1+I/Kii)) [2]
The activity of carboxyltransferase was measured in the reverse direction using malonyl-CoA and biocytin as substrates.

B1: carboxyltransferase component of E. coli acetyl-CoA carboxylase (Escherichia coli K-12) (protein)
chain 1: MSLNFLDFEQPIAELEAKIDSLTAVSRQDEKLDINIDEEVHRLREKSVELTRKIFADLGAWQIAQLARHPQRPYTLDYVRLAFDEFDELAGDRAYADDKAIVGGIARLDGRPVMIIGHQKGRETKEKIRRNFGMPAPEGYRKALRLMQMAERFKMPIITFIDTPGAYPGVGAEERGQSEAIARNLREMSRLGVPVVCTVIGEGGSGGALAIGVGDKVNMLQYSTYSVISPEGCASILWKSADKAPLAAEAMGIIAPRLKELKLIDSIIPEPLGGAHRNPEAMAASLKAQLLADLADLDVLSTEDLKNRRYQRLMSYGYA
chain 2: MSWIERIKSNITPTRKASIPEGVWTKCDSCGQVLYRAELERNLEVCPKCDHHMRMTARNRLHSLLDEGSLVELGSELEPKDVLKFRDSKKYKDRLASAQKETGEKDALVVMKGTLYGMPVVAAAFEFAFMGGSMGSVVGARFVRAVEQALEDNCPLICFSASGGARMQEALMSLMQMAKTSAALAKMQERGLPYISVLTDPTMGGVSASFAMLGDLNIAEPKALIGFAGPRVIEQTVREKLPPGFQRSEFLIEKGAIDMIVRRPEMRLKLASILAKLMNLPAPNPEAPREGVVVPPVPDQEPEA
notes: made in house; host or cells: E. coli overexpression strain (Blanchard et al. 1998; G. Waldrop, LSU)
- Km: 100 µM
